Test results as given in IntAct's records for PubMed 19015526.

B1: Ribonucleoside-diphosphate reductase subunit M2 B (Homo sapiens), Q7LG56-1 (parent)
chain: MGDPERPEAAGLDQDERSSSDTNESEIKSNEEPLLRKSSRRFVIFPIQYPDIWKMYKQAQASFWTAEEVDLSKDLPHWNKLKADEKYFISHILAFFAASDGIVNENLVERFSQEVQVPEARCFYGFQILIENVHSEMYSLLIDTYIRDPKKREFLFNAIETMPYVKKKADWALRWIADRKSTFGERVVAFAAVEGVFFSGSFAAIFWLKKRGLMPGLTFSNELISRDEGLHCDFACLMFQYLVNKPSEERVREIIVDAVKIEQEFLTEALPVGLIGMNCILMKQYIEFVADRLLVELGFSKVFQAENPFDFMENISLEGKTNFFEKRVSEYQRFAVMAETTDNVFTLDADF

Variants of: B1
Settings: with atm_human ATM

Variant | effect of a mutation on the interaction
S72A | decreasing interaction
